Results published in patent US20250011363A1, “OPTIMIZED SHORTENED PEPTIDE THAT BINDS TO ACETYLCHOLINE RECEPTOR, AND USE THEREOF” (SKINMED CO., LTD., priority 2021, published 2025).

Biological target: acetylcholine receptor
Experiment: SPR, AchR on chip, peptide 10 uM

Row | Binder | Binding affinity (RU)
1 | RQFQR [5mer-204] | 84 RU
2 | KRVRR [5mer-200] | 55 RU
3 | RSRTR [5mer-44] | 59 RU
4 | RWYYR [5mer-205] | 75 RU
5 | KQVSR [5mer-39] | 67 RU
6 | KSFYR [5mer-43] | 53 RU
7 | RQYTK [5mer-213] | 83 RU
8 | RGVRR [5mer-209] | 78 RU
9 | KSVCR [5mer-40] | 67 RU
10 | KLQRR [5mer-217] | 72 RU
11 | KQVRR [5mer-207] | 72 RU
12 | KRYQR [5mer-199] | 84 RU
13 | RLYYR [5mer-211] | 73 RU
14 | KQYTR [5mer-219] | 55 RU
15 | KWVRR [5mer-216] | 56 RU
16 | KWYRR [5mer-202] | 65 RU

Row | Binder | Binding affinity (RU)
17 | RQYRR [5mer-215] | 79 RU
18 | RVFQR [5mer-45] | 86 RU
19 | KQQYK [5mer-212] | 64 RU
20 | RVYLR [5mer-48] | 62 RU
21 | RQLTR [5mer-203] | 78 RU
22 | KRQCK [5mer-46] | 76 RU
23 | RVQCK [5mer-1] | 54 RU
24 | KVISK [5mer-41] | 82 RU
25 | KGVRR [5mer-47] | 70 RU
26 | KLQLR [5mer-206] | 57 RU
27 | KVQYK [5mer-218] | 80 RU
28 | RWIYR [5mer-201] | 62 RU
29 | KQQCK [5mer-214] | 79 RU
30 | KLICR [5mer-208] | 80 RU
31 | KVYYR [5mer-210] | 67 RU
32 | RQRLR [5mer-42] | 83 RU

Results, then the binder that gave them:

Row | Binding affinity (RU) | Binder
33 | 84 RU | RRISR [5mer-502]
34 | 84 RU | RRQQR [5mer-227]
35 | 69 RU | KVYQR [5mer-342]
36 | 61 RU | KRVSK [5mer-503]
37 | 51 RU | RGRLR [5mer-506]
38 | 76 RU | RVLTK [5mer-499]
39 | 51 RU | KQRYK [5mer-525]
40 | 72 RU | RLYSK [5mer-519]
41 | 56 RU | RGQRK [5mer-515]
42 | 86 RU | RVLLK [5mer-520]
43 | 87 RU | RVYYR [5mer-518]
44 | 61 RU | RVQRK [5mer-509]
45 | 51 RU | KGYRR [5mer-340]
46 | 86 RU | KWLLR [5mer-222]
47 | 67 RU | RLQRR [5mer-224]
48 | 71 RU | RQIYR [5mer-505]
49 | 71 RU | RQLSK [5mer-510]
50 | 70 RU | RLYLK [5mer-512]
51 | 67 RU | KGLQK [5mer-508]
52 | 63 RU | KSLQK [5mer-500]
53 | 57 RU | KGISK [5mer-346]
54 | 83 RU | KWQTR [5mer-516]
55 | 84 RU | KQFQK [5mer-523]
56 | 78 RU | RLVYR [5mer-522]

Row | Binding affinity (RU) | Binder
57 | 87 RU | KWVRK [5mer-339]
58 | 83 RU | RWYYK [5mer-513]
59 | 52 RU | KLLLK [5mer-514]
60 | 78 RU | KRFRK [5mer-521]
61 | 52 RU | KQFQR [5mer-344]
62 | 80 RU | KRQTK [5mer-348]
63 | 56 RU | KSLSR [5mer-511]
64 | 60 RU | RRYTR [5mer-226]
65 | 58 RU | RGRTR [5mer-221]
66 | 78 RU | KLQRK [5mer-501]
67 | 72 RU | KQIQR [5mer-504]
68 | 86 RU | RQQRR [5mer-345]
69 | 81 RU | KRILR [5mer-220]
70 | 61 RU | RWILR [5mer-338]
71 | 60 RU | KSFSR [5mer-343]
72 | 54 RU | KQFSR [5mer-526]
73 | 78 RU | KRICR [5mer-347]
74 | 61 RU | KQVRK [5mer-223]
75 | 51 RU | KRQQK [5mer-225]
76 | 84 RU | KWVQK [5mer-507]
77 | 52 RU | RWYRR [5mer-341]
78 | 83 RU | RRICR [5mer-524]
79 | 70 RU | KGYTR [5mer-517]
